Tests used:
[1] = biological target: Apoptosis-inducing factor 1 (AIFM1) (bovine (endogenous in bovine heart mitochondria)); experiment: complexome profiling
[2] = biological target: cytochrome c oxidase (COX), monomeric (bovine (endogenous in bovine heart mitochondria)) (UniProt P68530); experiment: complexome profiling
Chain of UniProt P68530 (P68530 whole entry, looked up): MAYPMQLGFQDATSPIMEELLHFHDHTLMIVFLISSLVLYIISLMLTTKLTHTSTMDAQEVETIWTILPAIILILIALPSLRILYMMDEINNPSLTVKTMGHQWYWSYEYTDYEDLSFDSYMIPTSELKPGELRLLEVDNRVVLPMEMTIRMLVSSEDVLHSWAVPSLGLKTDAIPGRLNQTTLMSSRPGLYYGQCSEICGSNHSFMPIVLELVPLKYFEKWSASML

stoichiometry N [1]: 2
percent of monomeric COX engaged in the complex [2]: 10%
Substance: Apoptosis-inducing factor 1 (AIFM1) (natural protein)
